From patent publication US20230183753A1, “Methods of in Vitro Cell Delivery” (Intellia Therapeutics, Inc., priority 2020, published 2023)
Oligonucleotides are written 5' to 3', each unit as a sugar letter and its base; * is a phosphorothioate linkage, no mark a phosphodiester; rarer units and linkages stand in square brackets, end groups in braces. Plain capitals give the bases only. m = 2'-O-methyl; r = 2'-OH (RNA)

Tests used:
[1] = tested on: B2M, TRAC, TRBC1/2, CIITA; test: NGS editing profile of T cells with BC22n or Cas9 mRNA, single or four guides, LNP titration, Example 16A; assay type: cell-based, human; conditions: LNP;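 also: activated T cells exposed to LNPs 72 h after activation, kept at 37 °C, harvested on day 10 post activation, editing measured by NGS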
Experimental: Cells were expanded in T cell basal media for 72 hours prior to LNP transfection.
LNPs were mixed to fixed total mRNA weight ratios of 6:3:2 for editor mRNA, guide RNA, and UGI mRNA respectively as described in Table 12. […] LNP mixtures were incubated for 5 minutes at 37° C. in T cell basal media substituting 6% cynomolgus monkey serum (Bioreclamation IVT, Cat. CYN220760) for fetal bovine serum.
T cells were incubated at 37° C. with 5% CO2 for the duration of the experiment.
In total, T cells were exposed to 6 different LNPs simultaneously (editor mRNA, UGI mRNA, 4 guides).

B2M, CD3, MHC II = test: Flow cytometry of antigen negative T cells (B2M, CD3, MHC II) after BC22n or Cas9 editing, Example 16A; assay type: cell-based, human
Text: Cells were subsequently washed, processed on a Cytoflex instrument (Beckman Coulter) and analyzed using the FlowJo software package. T cells were gated based on size, shape, viability, and antigen expression.

[2] = multiple guide delivery (four guides simultaneously), locus of the guide assayed, editor BC22n, total RNA 8.6 ng
[3] = multiple guide delivery (four guides simultaneously), locus of the guide assayed, editor BC22n, total RNA 17.2 ng
[4] = multiple guide delivery (four guides simultaneously), locus of the guide assayed, editor BC22n, total RNA 34.4 ng
[5] = multiple guide delivery (four guides simultaneously), locus of the guide assayed, editor BC22n, total RNA 68.8 ng
[6] = multiple guide delivery (four guides simultaneously), locus of the guide assayed, editor BC22n, total RNA 137.5 ng
[7] = multiple guide delivery (four guides simultaneously), locus of the guide assayed, editor BC22n, total RNA 275.0 ng
[8] = multiple guide delivery (four guides simultaneously), locus of the guide assayed, editor BC22n, total RNA 550.0 ng
[9] = multiple guide delivery (four guides simultaneously), locus of the guide assayed, editor Cas9, total RNA 8.6 ng
[10] = multiple guide delivery (four guides simultaneously), locus of the guide assayed, editor Cas9, total RNA 17.2 ng
[11] = multiple guide delivery (four guides simultaneously), locus of the guide assayed, editor Cas9, total RNA 34.4 ng
[12] = multiple guide delivery (four guides simultaneously), locus of the guide assayed, editor Cas9, total RNA 68.8 ng
[13] = multiple guide delivery (four guides simultaneously), locus of the guide assayed, editor Cas9, total RNA 137.5 ng
[14] = multiple guide delivery (four guides simultaneously), locus of the guide assayed, editor Cas9, total RNA 275.0 ng
[15] = multiple guide delivery (four guides simultaneously), locus of the guide assayed, editor Cas9, total RNA 550.0 ng
[16] = single guide delivery, editor BC22n, total RNA 8.6 ng
[17] = single guide delivery, editor BC22n, total RNA 17.2 ng
[18] = single guide delivery, editor BC22n, total RNA 34.4 ng
[19] = single guide delivery, editor BC22n, total RNA 68.8 ng
[20] = single guide delivery, editor BC22n, total RNA 137.5 ng
[21] = single guide delivery, editor BC22n, total RNA 275.0 ng
[22] = single guide delivery, editor BC22n, total RNA 550.0 ng
[23] = single guide delivery, editor Cas9, total RNA 8.6 ng
[24] = single guide delivery, editor Cas9, total RNA 17.2 ng
[25] = single guide delivery, editor Cas9, total RNA 34.4 ng
[26] = single guide delivery, editor Cas9, total RNA 68.8 ng
[27] = single guide delivery, editor Cas9, total RNA 137.5 ng
[28] = single guide delivery, editor Cas9, total RNA 275.0 ng
[29] = single guide delivery, editor Cas9, total RNA 550.0 ng

B1: G018117: guide targeting CIITA (SEQ ID NO: 714) (nucleic acid)
guide: mG*mC*mG*rUrCrCrArCrArUrCrCrUrGrCrArArGrGrGrGrUrUrUrUrArGrAmGmCmUmAmGmAmAmAmUmAmGmCrArArGrUrUrArArArArUrArArGrGrCrUrArGrUrCrCrGrUrUrArUrCrAmAmCmUmUmGmAmAmAmAmAmGmUmGmGmCmAmCmCmGmAmGmUmCmGmGmUmGmCmU*mU*mU*mU
[1]; [2]
  C-to-A/G % mean: 3.1%
  C-to-T % mean: 4.6%
  Indel % mean: 0.8%
[1]; [3]
  C-to-A/G % mean: 2.9%
  C-to-T % mean: 10.5%
  Indel % mean: 1.1%
[1]; [4]
  C-to-A/G % mean: 2.9%
  C-to-T % mean: 18.8%
  Indel % mean: 1.6%
[1]; [5]
  C-to-A/G % mean: 2.7%
  C-to-T % mean: 35.1%
  Indel % mean: 1.6%
[1]; [6]
  C-to-A/G % mean: 2.9%
  C-to-T % mean: 52.9%
  Indel % mean: 1.5%
[1]; [7]
  C-to-A/G % mean: 2.5%
  C-to-T % mean: 71.9%
  Indel % mean: 1.3%
[1]; [8]
  C-to-A/G % mean: 2.6%
  C-to-T % mean: 81.1%
  Indel % mean: 1.1%
[1]; [9]
  C-to-A/G % mean: 2.6%
  C-to-T % mean: 0.2%
  Indel % mean: 1.4%
[1]; [10]
  C-to-A/G % mean: 2.5%
  C-to-T % mean: 0.2%
  Indel % mean: 2.1%
[1]; [11]
  C-to-A/G % mean: 2.5%
  C-to-T % mean: 0.3%
  Indel % mean: 3.9%
[1]; [12]
  C-to-A/G % mean: 2.5%
  C-to-T % mean: 0.2%
  Indel % mean: 7.7%
[1]; [13]
  C-to-A/G % mean: 2.2%
  C-to-T % mean: 0.2%
  Indel % mean: 13.3%
[1]; [14]
  C-to-A/G % mean: 1.9%
  C-to-T % mean: 0.1%
  Indel % mean: 26.7%
[1]; [15]
  C-to-A/G % mean: 1.7%
  C-to-T % mean: 0.1%
  Indel % mean: 42.3%
[1]; [16]
  C-to-A/G % mean: 3.8%
  C-to-T % mean: 14.5%
  Indel % mean: 3.5%
[1]; [17]
  C-to-A/G % mean: 3.5%
  C-to-T % mean: 28.1%
  Indel % mean: 3.9%
[1]; [18]
  C-to-A/G % mean: 3.3%
  C-to-T % mean: 45.9%
  Indel % mean: 3.6%
[1]; [19]
  C-to-A/G % mean: 3.6%
  C-to-T % mean: 62.8%
  Indel % mean: 3.7%
[1]; [20]
  C-to-A/G % mean: 2.7%
  C-to-T % mean: 78.9%
  Indel % mean: 2.7%
[1]; [21]
  C-to-A/G % mean: 2.6%
  C-to-T % mean: 86.3%
  Indel % mean: 2.0%
[1]; [22]
  C-to-A/G % mean: 2.6%
  C-to-T % mean: 92.3%
  Indel % mean: 1.1%
[1]; [23]
  C-to-A/G % mean: 2.5%
  C-to-T % mean: 0.3%
  Indel % mean: 6.0%
[1]; [24]
  C-to-A/G % mean: 2.4%
  C-to-T % mean: 0.2%
  Indel % mean: 11.2%
[1]; [25]
  C-to-A/G % mean: 2.1%
  C-to-T % mean: 0.2%
  Indel % mean: 20.8%
[1]; [26]
  C-to-A/G % mean: 1.9%
  C-to-T % mean: 0.2%
  Indel % mean: 33.2%
[1]; [27]
  C-to-A/G % mean: 1.3%
  C-to-T % mean: 0.1%
  Indel % mean: 51.2%
[1]; [28]
  C-to-A/G % mean: 0.9%
  C-to-T % mean: 0.1%
  Indel % mean: 64.5%
[1]; [29]
  C-to-A/G % mean: 0.6%
  C-to-T % mean: 0.1%
  Indel % mean: 78.4%
B2M, CD3, MHC II; editor BC22n, total RNA 8.6 ng
  percent cells negative for antigen, HLA DR DP DQ neg, Mean %: 41.6%
B2M, CD3, MHC II; editor BC22n, total RNA 17.2 ng
  percent cells negative for antigen, HLA DR DP DQ neg, Mean %: 49.9%
B2M, CD3, MHC II; editor BC22n, total RNA 34.4 ng
  percent cells negative for antigen, HLA DR DP DQ neg, Mean %: 65.8%
B2M, CD3, MHC II; editor BC22n, total RNA 68.8 ng
  percent cells negative for antigen, HLA DR DP DQ neg, Mean %: 74.5%
B2M, CD3, MHC II; editor BC22n, total RNA 137.5 ng
  percent cells negative for antigen, HLA DR DP DQ neg, Mean %: 85.2%
B2M, CD3, MHC II; editor BC22n, total RNA 275.0 ng
  percent cells negative for antigen, HLA DR DP DQ neg, Mean %: 92.5%
B2M, CD3, MHC II; editor BC22n, total RNA 550.0 ng
  percent cells negative for antigen, HLA DR DP DQ neg, Mean %: 95.7%
B2M, CD3, MHC II; editor Cas9, total RNA 8.6 ng
  percent cells negative for antigen, HLA DR DP DQ neg, Mean %: 34.2%
B2M, CD3, MHC II; editor Cas9, total RNA 17.2 ng
  percent cells negative for antigen, HLA DR DP DQ neg, Mean %: 36.2%
B2M, CD3, MHC II; editor Cas9, total RNA 34.4 ng
  percent cells negative for antigen, HLA DR DP DQ neg, Mean %: 40.7%
B2M, CD3, MHC II; editor Cas9, total RNA 68.8 ng
  percent cells negative for antigen, HLA DR DP DQ neg, Mean %: 48.9%
B2M, CD3, MHC II; editor Cas9, total RNA 137.5 ng
  percent cells negative for antigen, HLA DR DP DQ neg, Mean %: 55.5%
B2M, CD3, MHC II; editor Cas9, total RNA 275.0 ng
  percent cells negative for antigen, HLA DR DP DQ neg, Mean %: 65.6%
B2M, CD3, MHC II; editor Cas9, total RNA 550.0 ng
  percent cells negative for antigen, HLA DR DP DQ neg, Mean %: 72.0%
